Results published in the supplement of paper PMC11246515.
± gives the standard deviation of the averaged measurements.

Experiment: total protein half-life in vivo (active degradation + dilution); higher = more stable protein
[1] = E. coli NCM3722 delta-clpP delta-lon delta-hslV, growth: N-lim chemostat, doubling time 6 h
[2] = E. coli NCM3722 delta-clpP, growth: N-lim chemostat, doubling time 6 h
[3] = E. coli NCM3722 delta-hslV, growth: N-lim chemostat, doubling time 6 h
[4] = E. coli NCM3722 delta-lon, growth: N-lim chemostat, doubling time 6 h
[5] = E. coli NCM3722 delta-smpB, growth: N-lim chemostat, doubling time 6 h
[6] = wild type E. coli NCM3722, growth: C-lim chemostat, doubling time 3 h
[7] = wild type E. coli NCM3722, growth: C-lim chemostat, doubling time 6 h
[8] = wild type E. coli NCM3722, growth: C-lim chemostat, doubling time 12 h
[9] = wild type E. coli NCM3722, growth: N-lim chemostat, doubling time 6 h
[10] = wild type E. coli NCM3722, growth: N-lim chemostat, doubling time 12 h
[11] = wild type E. coli NCM3722, growth: P-lim chemostat, doubling time 6 h
[12] = wild type E. coli NCM3722, growth: P-lim chemostat, doubling time 12 h

Sequence	total protein half-life in vivo [1] [h]	total protein half-life in vivo [2] [h]	total protein half-life in vivo [3] [h]	total protein half-life in vivo [4] [h]	total protein half-life in vivo [5] [h]	total protein half-life in vivo [6] [h]	total protein half-life in vivo [7] [h]	total protein half-life in vivo [8] [h]	total protein half-life in vivo [9] [h]	total protein half-life in vivo [10] [h]	total protein half-life in vivo [11] [h]	total protein half-life in vivo [12] [h]
MLDTNMKTQLKAYLEKLTKPVELIATLDDSAKSAEIKELLAEIAELSDKVTFKEDNSLPVRKPSFLITNPGSNQGPRFAGSPLGHEFTSLVLALLWTGGHPSKEAQSLLEQIRHIDGDFEFETYYSLSCHNCPDVVQALNLMSVLNPRIKHTAIDGGTFQNEITDRNVMGVPAVFVNGKEFGQGRMTLTEIVAKIDTGAEKRAAEELNKRDAYDVLIVGSGPAGAAAAIYSARKGIRTGLMGERFGGQILDTVDIENYISVPKTEGQKLAGALKVHVDEYDVDVIDSQSASKLIPAAVEGGLHQIETASGAVLKARSIIVATGAKWRNMNVPGEDQYRTKGVTYCPHCDGPLFKGKRVAVIGGGNSGVEAAIDLAGIVEHVTLLEFAPEMKADQVLQDKLRSLKNVDIILNAQTTEVKGDGSKVVGLEYRDRVSGDIHNIELAGIFVQIGLLPNTNWLEGAVERNRMGEIIIDAKCETNVKGVFAAGDCTTVPYKQIIIATGEGAKASLSAFDYLIRTKTA	3.63 ± 0.29	2.59 ± 0.18	2.67 ± 0.26	2.81 ± 0.1	2.68 ± 0.052	2.949 ± 0.0042	4.6889 ± 0.00064	7.3 ± 0.34	2.56 ± 0.047	3.37 ± 0.05	5.26 ± 0.2	9.723 ± 0.068
MAEGKAMSEFLPFSRPAMGVEELAAVKEVLESGWITTGPKNQALEQAFCQLTGNQHAIAVSSATAGMHITLMALKIGKGDEVITPSLTWVSTLNMISLLGATPVMVDVDRDTLMVTPEAIESAITPRTKAIIPVHYAGAPADIDAIRAIGERYGIAVIEDAAHAVGTYYKGRHIGAKGTAIFSFHAIKNITCAEGGLIVTDNENLARQLRMLKFHGLGVDAYDRQTWGRAPQAEVLTPGYKYNLTDINAAIALTQLVKLEHLNTRRREIAQQYQQALAALPFQPLSLPAWPHVHAWHLFIIRVDEQRCGISRDALMEALKERGIGTGLHFRAAHTQKYYRERFPTLSLPNTEWNSERICSLPLFPDMTTADADHVITALQQLAGQ	4.86 ± 0.74	3.7 ± 0.29	3.72 ± 0.19	4.52 ± 0.06	3.93 ± 0.41	3.52 ± 0.55	4.78 ± 0.6	9.35 ± 0.95	3.78 ± 0.055	6.38 ± 0.47	5.53 ± 0.55	11.7 ± 0.21
MSASALVCLAPGSEETEAVTTIDLLVRGGIKVTTASVASDGNLAITCSRGVKLLADAPLVEVADGEYDVIVLPGGIKGAECFRDSTLLVETVKQFHRSGRIVAAICAAPATVLVPHDIFPIGNMTGFPTLKDKIPAEQWLDKRVVWDARVKLLTSQGPGTAIDFGLKIIDLLVGREKAHEVASQLVMAAGIYNYYE	5.064 ± 0.047	–	5.39 ± 1.1	4.534 ± 0.022	4.23 ± 0.24	2.69 ± 0.31	5.15 ± 0.32	9.53 ± 0.47	4.21 ± 0.22	7.09 ± 0.18	5.81 ± 0.065	–
MQVSVETTQGLGRRVTITIAADSIETAVKSELVNVAKKVRIDGFRKGKVPMNIVAQRYGASVRQDVLGDLMSRNFIDAIIKEKINPAGAPTYVPGEYKLGEDFTYSVEFEVYPEVELQGLEAIEVEKPIVEVTDADVDGMLDTLRKQQATWKEKDGAVEAEDRVTIDFTGSVDGEEFEGGKASDFVLAMGQGRMIPGFEDGIKGHKAGEEFTIDVTFPEEYHAENLKGKAAKFAINLKKVEERELPELTAEFIKRFGVEDGSVEGLRAEVRKNMERELKSAIRNRVKSQAIEGLVKANDIDVPAALIDSEIDVLRRQAAQRFGGNEKQALELPRELFEEQAKRRVVVGLLLGEVIRTNELKADEERVKGLIEEMASAYEDPKEVIEFYSKNKELMDNMRNVALEEQAVEAVLAKAKVTEKETTFNELMNQQA [P0A850]	6.11 ± 0.15	5.78 ± 0.82	5.67 ± 0.022	6 ± 0.012	4.96 ± 0.061	3.12 ± 0.18	5.738 ± 0.013	10.4 ± 0.89	5.35 ± 0.36	9.03 ± 0.57	5.01 ± 0.23	9.5 ± 0.3
MSYPLFDKDEHWHKPEQAFLTDDHRTILRFAVEALMSGKGAVLVTLVEIRGGAARPLGAQMVVREDGRYCGFVSGGCVEAAAAFEALEMMGSGRDREIRYGEGSPWFDIVLPCGGGITLTLHKLRSAQPLLAVLNRLEQRKPVGLRYDPQAQSLVCLPTQTRTGWNLNGFEVGFRPCVRLMIYGRSLEAQATASLAAATGYDSHIFDLFPASASAQIDTDTAVILLCHDLNRELPVLQAAREAKPFYLGALGSYRTHTLRLQKLHELGWSREETTQIRAPVGIFPKARDAHTLALSVLAEVASVRLHQEEDSCLPPSS	5.9 ± 0.33	–	–	–	–	–	–	–	–	–	–	–
MKIAILSRDGTLYSCKRLREAAIQRGHLVEILDPLSCYMNINPAASSIHYKGRKLPHFDAVIPRIGTAITFYGTAALRQFEMLGSYPLNESVAIARARDKLRSMQLLARQGIDLPVTGIAHSPDDTSDLIDMVGGAPLVVKLVEGTQGIGVVLAETRQAAESVIDAFRGLNAHILVQEYIKEAQGCDIRCLVVGDEVVAAIERRAKEGDFRSNLHRGGAASVASITPQEREIAIKAARTMALDVAGVDILRANRGPLVMEVNASPGLEGIEKTTGIDIAGKMIRWIERHATTEYCLKTGG [P0C0U4]	–	4.13 ± 0.23	3.76 ± 0.12	4.31 ± 0.27	3.78 ± 0.36	2.85 ± 0.062	5.3 ± 0.24	10.9 ± 0.29	3.77 ± 0.19	6.029 ± 0.023	5.56 ± 0.65	–
MRVLVVEDNALLRHHLKVQIQDAGHQVDDAEDAKEADYYLNEHIPDIAIVDLGLPDEDGLSLIRRWRSNDVSLPILVLTARESWQDKVEVLSAGADDYVTKPFHIEEVMARMQALMRRNSGLASQVISLPPFQVDLSRRELSINDEVIKLTAFEYTIMETLIRNNGKVVSKDSLMLQLYPDAELRESHTIDVLMGRLRKKIQAQYPQEVITTVRGQGYLFELR	4.69 ± 0.2	4.2 ± 0.46	4.056 ± 0.01	4.7 ± 0.21	4.19 ± 0.29	2.85 ± 0.13	5.04 ± 0.12	8.69 ± 1	4.33 ± 0.29	7.55 ± 0.24	5.134 ± 0.051	8.98 ± 0.26
